Measurements reported in IntAct's records for PubMed 27009418.

B1: Calsenilin (Mus musculus), Q9QXT8 (parent)
chain: MQRTKEAVKASDGNLLGDPGRIPLSKRESIKWQRPRFTRQALMRCCLIKWILSSAAPQGSDSSDSELELSTVRHQPEGLDQLQAQTKFTKKELQSLYRGFKNECPTGLVDEDTFKLIYSQFFPQGDATTYAHFLFNAFDADGNGAIHFEDFVVGLSILLRGTVHEKLKWAFNLYDINKDGCITKEEMLAIMKSIYDMMGRHTYPILREDAPLEHVERFFQKMDRNQDGVVTIDEFLETCQKDENIMNSMQLFENVI

Variants of: B1
Details: with psn1_human PSEN1, P49768

Variant | effect of a mutation on the interaction
MQRTKEAVKASDGNLLGDPGRIPLSKRESIKWQRPRFTRQALMRCCLIKWILSSAAPQGSDSSDSELELSTVRHQPEGLDQLQAQTKFTKKELQSLYRGFKNECPTGLVDEDTFKLIYSQFFPQGDATTYAHFLFNAFDADGNGAIHFEDFVVGLSILLRGTVHEKLKWAFNLYDINKDGCITKEEMLAIMKSIYDMMGRHTYPILREDAPLEHVERFFQKMDRNQDGVVTIDQFLETCQKDENIMNSMQLFENVI [E234Q] | decreasing interaction
MQRTKEAVKASDGNLLGDPGRIPLSKRESIKWQRPRFTRQALMRCCLIKWILSSAAPQGSDSSDSELELSTVRHQPEGLDQLQAQTKFTKKELQSLYRGFKNECPTGLVDEDTFKLIYSQFFPQGDATTYAHFLFNAFDADGNGAIHFEDFVVGLSILLRGTVHEKLKWAFNLYDINKDGCITKEQMLAIMKSIYDMMGRHTYPILREDAPLEHVERFFQKMDRNQDGVVTIDEFLETCQKDENIMNSMQLFENVI [E186Q] | decreasing interaction
